Results taken from the supplement of paper PMC12042874.
± gives the uncertainty stated by the source.

Experiment: amyloid nucleation score (Sup35N fusion, yeast selection) (log enrichment); library NNK2; higher = more nucleation; inactive = no reads after selection
Method in brief: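 Nucleation score is defined as the DiMSum log enrichment of output over input reads, with centring on the mode score of non-aggregating sequences. A minimum of 100 input reads was required for each sequence. Reads came from Illumina sequencing of plasmid inserts from psi-negative yeast expressing Sup35N fused to peptides of 20 random codons, induced with 100 μM copper sulfate for 24 hours and grown 7 days at 30°C on medium lacking adenine and uracil.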

Going from RVIQLQKVTHWW to RVLKFFYGLTRVVS, the amyloid nucleation score falls from 2.72 ± 0.078 to 1.23 ± 0.12.

Compared with RVLREKCSIGVAGKYSY, RVMFYVINEVWDMNSARTNT is higher in amyloid nucleation score: -0.512 ± 0.49 for the first, 6.38 ± 0.08 for the second.

RVMMLEGQASNMAYEEL and RVNEMWIQI are within error of each other in amyloid nucleation score: 0.274 ± 1.1 for the first, -0.138 ± 0.76 for the second.

Going from RVNTLLHILMYFNCLSGVEL to RVRKNCRFWSNCSCIVMVGR, the amyloid nucleation score rises from 4.88 ± 0.049 to 5.07 ± 0.059.

RVRSGKKHDW and RVSRRCVYWRRQGHWAIFGQ are within error of each other in amyloid nucleation score: 1.01 ± 0.14 for the first, 0.098 ± 1 for the second.

RVTFSLWFADFIQNNLLKK and RVTNLIHQLRVPKIGKSGFA are within error of each other in amyloid nucleation score: 0.158 ± 0.5 for the first, 0.294 ± 0.23 for the second.

First: RVVQPKFMLGVQYSAIQFNS
Second: RWATAKRI
The amyloid nucleation score of the first is higher: 2.47 ± 0.089 for the first, 0.194 ± 0.49 for the second.

RWCQE and RWCSSYRYIHSGGRNASGSF are within error of each other in amyloid nucleation score: -0.288 ± 0.53 for the first, -0.108 ± 0.8 for the second.

Going from RWDCLQLLISSCFFDMDGCG to RWHLFSITYLKVLDWDCCLW, the amyloid nucleation score rises from -0.668 ± 0.64 to 5.45 ± 0.034.

First: RWPNLSDAQVWAPTSQLLSS
Second: RYFRATPKVCRLH
The amyloid nucleation score of the first is higher: 0.92 ± 0.32 for the first, 0.175 ± 0.26 for the second.

Going from RYGRRSYLPAIIRCARCLDE to RYGVRTSAPNMQWLFAGWS, the amyloid nucleation score falls from 6.56 ± 0.066 to 0.613 ± 0.74.

First: RYHSRAWAPYCTTHATVPEV
Second: RYNRN
The amyloid nucleation score of the first is higher: 1.28 ± 0.29 for the first, -0.195 ± 0.36 for the second.

Going from RYRHLTFLVFCIAVPVGFWR to RYSITGTYYIA, the amyloid nucleation score rises from 2.04 ± 0.14 to 3.63 ± 0.057.

First: RYSRFSDQSMFSRPYA
Second: RYYLNL
The amyloid nucleation score of the first is lower: 0.333 ± 0.31 for the first, 3.83 ± 0.091 for the second.

Compared with SADRRQGITRFGTFNGGVRS, SAIKYIGILAMRDQDQASQI is lower in amyloid nucleation score: 0.481 ± 0.24 for the first, -1.59 ± 0.62 for the second.

Compared with SAMLDRFYGVRFTMFCRAEH, SARWYILRVFIFFIPRSAYK is lower in amyloid nucleation score: 0.299 ± 0.61 for the first, -1.59 ± 0.76 for the second.

Going from SASVHYHYDMK to SCDIKCWCQ, the amyloid nucleation score rises from 0.268 ± 0.62 to 3.41 ± 0.079.

SCFTLSFKVITLHSRLQFIW and SCIMECM are within error of each other in amyloid nucleation score: 0.181 ± 0.35 for the first, -0.108 ± 1.1 for the second.

SCLYSSRPSMLGTIYRRMRC and SCNPRKNGSQCCGMNLSLSV are within error of each other in amyloid nucleation score: 0.163 ± 0.34 for the first, 0.808 ± 0.8 for the second.

Compared with SCSRWHYESSYLYIDTLEDY, SCSVCWSLSMV is higher in amyloid nucleation score: 0.347 ± 0.55 for the first, 1.31 ± 0.36 for the second.

Going from SCSWLLSEIGCESVEIRRTV to SCYLALKFTFRLFVLKSEGL, the amyloid nucleation score falls from 5.51 ± 0.082 to -0.202 ± 1.

First: SDGQGHYVIQRTLWVTWSFR
Second: SDGVNIMK
The amyloid nucleation score of the first is lower: -0.707 ± 0.76 for the first, 2.83 ± 0.18 for the second.

SDINRVVGLPRTRLALRSKR and SDLSKKSLLKVLMAS are within error of each other in amyloid nucleation score: -0.447 ± 0.54 for the first, -0.375 ± 1.1 for the second.

First: SDPKLFCAIKAGNTQLGVES
Second: SDRQHNAYNFLFVL
The amyloid nucleation score of the first is lower: 0.634 ± 0.54 for the first, 4.6 ± 0.051 for the second.

SDTGGSVYMKTVGRTHLTYD and SEAKGYLIWGFLWLFGYDFE are within error of each other in amyloid nucleation score: -0.252 ± 0.25 for the first, -0.802 ± 0.63 for the second.

SECFRLSLRKGCNTNQVRNT and SEFYIRLQYNNVVIVDLFEV are within error of each other in amyloid nucleation score: -0.989 ± 0.63 for the first, -0.701 ± 0.63 for the second.

First: SERTLNLRSKSSPHPCST
Second: SETYTLIRARYIMV
The amyloid nucleation score of the first is higher: 3.86 ± 0.12 for the first, -1.24 ± 0.75 for the second.

First: SEYALYAFE
Second: SFAHEDWHTLFLL
The amyloid nucleation score of the first is higher: -0.173 ± 0.25 for the first, -1.32 ± 0.75 for the second.

SFAIIS and SFDTCRSLIRLYHVPPRTVL are within error of each other in amyloid nucleation score: 0.077 ± 0.65 for the first, -0.276 ± 0.61 for the second.

SFFPS and SFFVIGW are within error of each other in amyloid nucleation score: -0.301 ± 0.45 for the first, 0.102 ± 0.17 for the second.

SFINVLDQRVILRPPTRVFV and SFIVRRFSSCLHLFGDSEGY are within error of each other in amyloid nucleation score: 0.494 ± 0.65 for the first, -0.098 ± 0.41 for the second.

SFLMCGHWIACALTMMVMFQ and SFLRSTSRDPKGCVKMRYFT are within error of each other in amyloid nucleation score: 0.896 ± 0.58 for the first, 1.17 ± 0.2 for the second.

Going from SFNRS to SFRLISRVLRCNMIQ, the amyloid nucleation score falls from 0.87 ± 0.31 to -0.881 ± 0.37.

SFRSMIQQSAAGFYSSFIST and SFSRSGFCHMCSLSALTGLR are within error of each other in amyloid nucleation score: -1.89 ± 1.1 for the first, -0.196 ± 1.1 for the second.

Compared with SFVTCCVSCGWRGQIHAEKL, SFWLTMMCNVGTMALVLSNL is lower in amyloid nucleation score: 6.78 ± 0.073 for the first, -0.065 ± 0.31 for the second.

SGEGRLLVRWALVKVTEEKL and SGGHKWVYFASCISFLRPWR are within error of each other in amyloid nucleation score: 0.907 ± 0.58 for the first, -0.069 ± 0.55 for the second.

SGIADEMGSRLTRKLVNRFY and SGRCNSN are within error of each other in amyloid nucleation score: -0.466 ± 0.55 for the first, -0.63 ± 0.79 for the second.

SGSGNLFA and SGTRYYPSWIFGFLVVCKG are within error of each other in amyloid nucleation score: -0.545 ± 0.45 for the first, -0.404 ± 0.64 for the second.

Compared with SGVKLYRLRRLCLFSRGKFA, SGVWSSKSLYGKRGNSWIVV is lower in amyloid nucleation score: 4.09 ± 0.12 for the first, 0.053 ± 0.23 for the second.

SGYQGKYRSMSPRFKFSWVG and SHCCFLG are within error of each other in amyloid nucleation score: -0.392 ± 0.63 for the first, 0.118 ± 0.51 for the second.

Compared with SHFCVVCEYTLVSSYHR, SHGCGHRL is lower in amyloid nucleation score: 5.09 ± 0.09 for the first, -0.051 ± 0.79 for the second.

Compared with SHLCQVLVVLGGASTV, SHLKMDNPCLGF is lower in amyloid nucleation score: 6.41 ± 0.077 for the first, -0.121 ± 0.25 for the second.

SHQWLRRLPWVI and SHRFADILDCV are within error of each other in amyloid nucleation score: 0.528 ± 0.44 for the first, 0.518 ± 0.24 for the second.

SHTITSGWCAGWIGFSPICR and SIARHFRGFV are within error of each other in amyloid nucleation score: 0.932 ± 0.32 for the first, 0.734 ± 0.47 for the second.

SIAWRLEFIVDDGVLFRCKS and SIFHGWARWKGFG are within error of each other in amyloid nucleation score: -0.563 ± 0.35 for the first, -0.258 ± 0.48 for the second.

SIFSKYCF and SIGVSDGNPGRAVGGGLMGH are within error of each other in amyloid nucleation score: -0.464 ± 0.5 for the first, 0.098 ± 0.49 for the second.

First: SILGGVKSLRNIKLFSVWLA
Second: SILGVCSRLSYVRSVTFQGV
The amyloid nucleation score of the first is lower: -0.569 ± 0.79 for the first, 0.998 ± 0.61 for the second.

Compared with SILLYKFK, SIPSCCWSLMGFNIIELDDG is lower in amyloid nucleation score: 1.54 ± 0.12 for the first, 0.173 ± 1.1 for the second.

First: SIRSLMGVRSKNSYCRLTVR
Second: SISAKFSSTSWGGG
The amyloid nucleation score of the first is lower: 0.011 ± 0.79 for the first, 6.444 ± 0.046 for the second.

First: SISGHSWTKCVRVHYALIYG
Second: SISSLLLRLRGTV
The amyloid nucleation score of the first is higher: 1.07 ± 0.38 for the first, -0.305 ± 0.79 for the second.

First: SISVKGLSGRLTVRYLLILV
Second: SISWVVYSTV
The amyloid nucleation score of the first is lower: -0.669 ± 1 for the first, 2.1 ± 0.084 for the second.

SIVLSDGLGS and SKARGLCFLSVLLFISDQST are within error of each other in amyloid nucleation score: 0.044 ± 1.1 for the first, -1.78 ± 1.1 for the second.

Going from SKCWESREQGYMYMEWGFEG to SKFDLYAKFMIRINRLFVLW, the amyloid nucleation score falls from 0.219 ± 1 to -1.59 ± 0.41.

Compared with SKGSGICRRISTEYDGVGQS, SLADS is lower in amyloid nucleation score: 0.6 ± 0.42 for the first, -0.802 ± 0.63 for the second.

Going from SLAQDVRGYGLCNGKTNIVW to SLATSAWVVYLWFVVRDIVV, the amyloid nucleation score rises from -0.867 ± 0.35 to 0.388 ± 0.33.

SLAWARISGVVAICTVGRGF showed an amyloid nucleation score of 7.44 ± 0.032.

With RVSCNRVRVYCWLVWRLIPN the amyloid nucleation score was “inactive”.
For RWLTGMLDVVPYTFCEEV, the amyloid nucleation score was “inactive”.
With RYALFSARIYSLYWLWFCIF the amyloid nucleation score was “inactive”.
With RYNIVLGRLL the amyloid nucleation score was “inactive”.
In the case of RYTSVYSGRSENG, the amyloid nucleation score is reported as “inactive”.
With SDDLCHCIFGVVPGKSFPTM the amyloid nucleation score was “inactive”.
For SEENYGRYLAMEVYNYSQAL, the amyloid nucleation score was “inactive”.
With SEWSTYLCSSNI the amyloid nucleation score was “inactive”.
In the case of SFCMPGISLFLVFRQTDGHM, the amyloid nucleation score is reported as “inactive”.
In the case of SFNDESGFLLSSGYPISFKR, the amyloid nucleation score is reported as “inactive”.
In the case of SFVDMSYRFLVGVRFLVRPS, the amyloid nucleation score is reported as “inactive”.
In the case of SGSVLFGRVYRRRFLFWVVD, the amyloid nucleation score is reported as “inactive”.
With SIFFNRASCLRRV the amyloid nucleation score was “inactive”.
For SIKVRMGEARVMNLVNTLGV, the amyloid nucleation score was “inactive”.
For SITAIYESLNRRRNLKFKYC, the amyloid nucleation score was “inactive”.
In the case of SKEVAAGCSLGIRVVMFKR, the amyloid nucleation score is reported as “inactive”.
